{"source": "paper PMC5330260", "about": "(Analytical biochemistry, 2017)", "binders": {"B1": {"name": "RGS17 RH domain (domain or fragment, human, UniProt Q9UGC6 73-201, looked up)", "chain": "PTAEEVLSWSQNFDKMMKAPAGRNLFREFLRTEYSEENLLFWLACEDLKKEQNKKVIEEKARMIYEDYISILSPKEVSLDSRVREVINRNLLDPNPHMYEDAQLQIYTLMHRDSFPRFLNSQIYKSFVE"}}, "molecular_target": "Gαi1 (human, UniProt P63096 1-354)", "sequence (P63096 whole entry)": "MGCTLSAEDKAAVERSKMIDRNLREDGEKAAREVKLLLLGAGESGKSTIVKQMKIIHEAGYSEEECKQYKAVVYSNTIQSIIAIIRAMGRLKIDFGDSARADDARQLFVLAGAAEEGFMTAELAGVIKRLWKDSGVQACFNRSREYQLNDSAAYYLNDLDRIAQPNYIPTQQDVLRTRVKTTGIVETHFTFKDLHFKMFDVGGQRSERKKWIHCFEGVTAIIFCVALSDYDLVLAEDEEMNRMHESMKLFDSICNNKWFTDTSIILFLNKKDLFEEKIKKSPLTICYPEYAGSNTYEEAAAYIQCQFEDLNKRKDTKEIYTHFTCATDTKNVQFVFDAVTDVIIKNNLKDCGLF", "experiment": "split reporter", "data": [{"binder": "B1", "values": [{"measurement": "net signal increase in response to AlF4, fold of that of RGS6", "value": 2.8, "unit": "fold"}, {"measurement": "net signal increase in response to AlF4, fold of that of RGS7", "value": 6.3, "unit": "fold"}]}]}
